± gives the standard deviation.
Test: collision cross section of modified peptide (TIMS, N2, iRT-aligned); higher = larger / more extended gas-phase ion
Method in brief: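 Synthetic peptide pools (~100 fmol/µL in 2% acetonitrile/0.1% formic acid, iRT standard spiked 1:40) were separated on a 120-min nanoflow C18 gradient at 60 °C. They were analysed on a timsTOF Pro/HT (dda-PASEF, nitrogen, ~2.4 mbar) and identified with MaxQuant. 1/K0 was calibrated with three reference ions and aligned run-wise to the median iRT peptide deviation. Collision cross section came from the Mason-Schamp equation, averaging 1–3 technical replicates of the most abundant feature per charge state.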

[1] = charge state: 2, modification: Phospho (Y)
[2] = charge state: 2, modification: Dimethyl (K)
[3] = charge state: 3, modification: Dimethyl (K)
[4] = charge state: 2, modification: Hydroxyproline
[5] = charge state: 2, modification: Biotin
[6] = charge state: 3, modification: Biotin
[7] = charge state: 3, modification: Trimethyl (K)
[8] = charge state: 2, modification: Methyl (K)
[9] = charge state: 3, modification: Methyl (K)
[10] = charge state: 3, modification: Hydroxyproline
[11] = charge state: 2, modification: Malonyl
[12] = charge state: 2, modification: Formyl
[13] = charge state: 2, modification: hydroxyisobutyryl
[14] = charge state: 3, modification: hydroxyisobutyryl
[15] = charge state: 2, modification: Glutarylation
[16] = charge state: 2, modification: Nitro (Y)
[17] = charge state: 3, modification: Glutarylation

DYNVTANSK [_DY(Phospho (Y))NVTANSK_] showed a collision cross section [1] of 337.74 ± 0.067 Å².
“SDDESSQKDIK [_SDDESSQK(Dimethyl (K))DIK_]” gave a collision cross section [2] of 372.77 ± 1.2 Å² and a collision cross section [3] of 434.93 ± 2.1 Å².
Work on “GNPGVGTQGPR [_GNP(Hydroxyproline)GVGTQGPR_]” yielded a collision cross section [4] of 327.91 ± 0.79 Å².
Work on LLFSNTAAQKLR [_LLFSNTAAQK(Biotin)LR_] yielded a collision cross section [5] of 418.21 ± 1.1 Å² and a collision cross section [6] of 503.51 Å².
For “VSPASSVDSNIPSSQGYKK [_VSPASSVDSNIPSSQGYK(Trimethyl (K))K_]”, the collision cross section [7] was 548.09 ± 0.9 Å².
“STGLELETPSLVPVKK [_STGLELETPSLVPVK(Methyl (K))K_]” gave a collision cross section [8] of 452.34 ± 2.6 Å² and a collision cross section [9] of 516.69 ± 3.1 Å².
In the case of “GGPGSTLSFVGKR [_GGPGSTLSFVGK(Propionyl)R_]”, the collision cross section (charge state: 2, modification: Propionyl) is reported as 384.23 ± 0.44 Å².
Substance “FPGVGVLPGVPTGAGVK [_FPGVGVLP(Hydroxyproline)GVPTGAGVK_]” has a collision cross section [4] of 432.68 ± 8.7 Å² and a collision cross section [10] of 504.05 ± 5.9 Å².
Work on “DTGEKLTVAENEAETK [_DTGEK(Malonyl)LTVAENEAETK_]” yielded a collision cross section [11] of 444.04 ± 1.8 Å².
TEVNSGFFYK [_TEVNSGFFY(Phospho (Y))K_] showed a collision cross section [1] of 373.38 ± 0.68 Å².
For “AGPNASIISLKSDK [_AGPNASIISLK(Biotin)SDK_]”, the collision cross section [5] was 431.71 ± 1.7 Å² and the collision cross section [6] was 469.41 Å².
Work on “SLGEPAAGEGSAKR [_SLGEPAAGEGSAK(Formyl)R_]” yielded a collision cross section [12] of 375.91 ± 0.55 Å² and a collision cross section (charge state: 3, modification: Formyl) of 481.8 Å².
With DHLSDKESK [_DHLSDK(Dimethyl (K))ESK_] the collision cross section [2] was 344.63 ± 1.5 Å² and the collision cross section [3] was 408.73 ± 0.56 Å².
In the case of “DDSFLGKLGGTLAR [_DDSFLGK(hydroxyisobutyryl)LGGTLAR_]”, the collision cross section [13] is reported as 418.74 ± 0.55 Å² and the collision cross section [14] is reported as 495.38 ± 2.8 Å².
Work on “TQAYQDQKPGTSGLR [_TQAYQDQK(Formyl)PGTSGLR_]” yielded a collision cross section [12] of 427.08 ± 0.79 Å².
Substance LEEVTGKLQVAR [_LEEVTGK(Crotonyl)LQVAR_] has a collision cross section (charge state: 2, modification: Crotonyl) of 398.71 ± 0.79 Å².
Substance “ASNAAVKLAESK [_ASNAAVK(Gluratylation)LAESK_]” has a collision cross section [15] of 379.86 ± 0.1 Å².
For TAIQAAGYPDK [_TAIQAAGY(Nitro (Y))PDK_], the collision cross section [16] was 354.49 ± 0.55 Å².
“SLEEEGAAHSGKR [_SLEEEGAAHSGK(Acetyl (K))R_]” gave a collision cross section (charge state: 2, modification: Acetyl (K)) of 412.49 ± 2.4 Å² and a collision cross section (charge state: 3, modification: Acetyl (K)) of 476.34 ± 2.4 Å².
In the case of “IPQEKCILQTDVK [_IPQEK(hydroxyisobutyryl)CILQTDVK_]”, the collision cross section [13] is reported as 438.91 ± 0.79 Å².
With “LDLSSLAYSGK [_LDLSSLAY(Phospho (Y))SGK_]” the collision cross section [1] was 374.73 ± 0.68 Å².
“YEEIVKEVSTYIK [_YEEIVK(hydroxyisobutyryl)EVSTYIK_]” gave a collision cross section [13] of 436.97 ± 5 Å².
In the case of “VDIDVPDVNIEGPDAKLK [_VDIDVPDVNIEGPDAK(Gluratylation)LK_]”, the collision cross section [15] is reported as 479.85 ± 0.49 Å² and the collision cross section [17] is reported as 509.66 ± 1.3 Å².
In the case of “FLQEFYQDDELGKK [_FLQEFYQDDELGK(Malonyl)K_]”, the collision cross section [11] is reported as 451.48 ± 0.99 Å².
For “TQDQISNIKYHEEFEK [_TQDQISNIK(Methyl (K))YHEEFEK_]”, the collision cross section [9] was 547.22 ± 0.37 Å².
With “VYVGNLGTGAGK [_VY(Phospho (Y))VGNLGTGAGK_]” the collision cross section [1] was 364.53 ± 0.064 Å².
“GTVPDDAVEALADSLGKK [_GTVPDDAVEALADSLGK(Trimethyl (K))K_]” showed a collision cross section (charge state: 2, modification: Trimethyl (K)) of 486.05 ± 4.8 Å² and a collision cross section [7] of 534.79 ± 2.4 Å².
“GTISAPGKVVTAAAQAK [_GTISAPGK(Gluratylation)VVTAAAQAK_]” gave a collision cross section [15] of 445.81 ± 0.95 Å² and a collision cross section [17] of 526.52 ± 1.1 Å².
With “GSIGFPGFPGANGEKGGR [_GSIGFP(Hydroxyproline)GFPGANGEKGGR_]” the collision cross section [10] was 489.41 ± 4 Å².
Work on “ITESVAETAQTIKK [_ITESVAETAQTIK(Methyl (K))K_]” yielded a collision cross section [8] of 444.7 ± 2.5 Å² and a collision cross section [9] of 507.98 ± 2.8 Å².
Substance “TQAYQDQKPGTSGLR [_TQAYQDQK(Malonyl)PGTSGLR_]” has a collision cross section [11] of 430.62 ± 0.59 Å² and a collision cross section (charge state: 3, modification: Malonyl) of 484.2 Å².
With IISSIEQKEENK [_IISSIEQK(Formyl)EENK_] the collision cross section [12] was 398.84 ± 0.2 Å².
For “DTPTSAGPNSFNKGK [_DTPTSAGPNSFNK(hydroxyisobutyryl)GK_]”, the collision cross section [13] was 416.06 ± 1.1 Å² and the collision cross section [14] was 443.44 ± 3 Å².
Work on FEGAIYR [_FEGAIY(Nitro (Y))R_] yielded a collision cross section [16] of 321.92 ± 0.71 Å².
Substance IQQELQTAKK [_IQQELQTAK(Formyl)K_] has a collision cross section [12] of 369.08 ± 0.89 Å².
